Laboratory results from patent publication US20200079833A1 (AstraZeneca / MedImmune, published 2020).
Starred links: 1 amine or outer side, 2 acyl side, 3 side chain; linkers in the order of their positions; H or OH if unused. Non-standard residues stand in square brackets, D forms with d. Groups on a side chain read outwards from the residue. No end group written: not given here. *: point of attachment. γGlu = O=C(O)[C@H](CCC(=O)[*:2])N[*:1]; Palmitoyl = CCCCCCCCCCCCCCCC(=O)*; αMeF = C[C@](N)(Cc1ccccc1)C(=O)O; αMeK = C[C@](N)(CCCCN)C(=O)O; αMeS = C[C@](N)(CO)C(=O)O; Aib = CC(C)(N)C(=O)O

T1: glucose-dependent insulinotropic peptide (gastric inhibitory polypeptide) receptor (human, UniProt P48546 22-466)
T1 sequence (looked up): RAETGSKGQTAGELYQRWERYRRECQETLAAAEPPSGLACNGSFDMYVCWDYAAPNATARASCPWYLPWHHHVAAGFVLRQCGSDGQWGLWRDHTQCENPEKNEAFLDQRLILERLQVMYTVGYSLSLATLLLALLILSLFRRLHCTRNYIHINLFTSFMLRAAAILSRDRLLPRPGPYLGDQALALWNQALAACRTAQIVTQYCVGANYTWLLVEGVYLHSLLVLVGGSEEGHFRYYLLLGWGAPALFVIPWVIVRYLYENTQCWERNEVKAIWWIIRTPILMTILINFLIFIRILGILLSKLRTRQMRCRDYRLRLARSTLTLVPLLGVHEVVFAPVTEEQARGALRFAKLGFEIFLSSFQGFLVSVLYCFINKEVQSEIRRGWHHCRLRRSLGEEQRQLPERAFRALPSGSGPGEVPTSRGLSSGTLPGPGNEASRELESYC


Legend:
Test in all cases: cell-based or functional assay
[1] = molecular target: T1, glucose-dependent insulinotropic …
glucagon receptor = glucagon receptor (human, UniProt P47871 26-477)
GLP-1 receptor = GLP-1 receptor (human, UniProt P43220 24-463)

glucagon receptor, sequence (P47871 26-477): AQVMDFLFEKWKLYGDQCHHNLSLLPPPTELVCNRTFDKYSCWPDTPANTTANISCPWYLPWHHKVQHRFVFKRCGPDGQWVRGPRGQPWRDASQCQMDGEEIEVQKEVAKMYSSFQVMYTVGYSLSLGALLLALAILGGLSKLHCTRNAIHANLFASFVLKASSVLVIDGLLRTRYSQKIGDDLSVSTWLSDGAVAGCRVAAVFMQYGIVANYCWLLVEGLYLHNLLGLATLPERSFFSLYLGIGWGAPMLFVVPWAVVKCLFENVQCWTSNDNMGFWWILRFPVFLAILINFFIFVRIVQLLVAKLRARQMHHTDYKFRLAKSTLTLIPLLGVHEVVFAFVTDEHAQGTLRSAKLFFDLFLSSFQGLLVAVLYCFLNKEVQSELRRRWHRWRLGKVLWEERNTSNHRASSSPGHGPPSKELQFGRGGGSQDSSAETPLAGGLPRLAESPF

Primary assay EC50 (cAMP), n1 [1] [nM]	Primary assay EC50 (cAMP), n2 [1] [nM]	Primary assay EC50 (cAMP), n1 (glucagon receptor) [nM]	Primary assay EC50 (cAMP), n2 (glucagon receptor) [nM]	Primary assay EC50 (cAMP), Mean pM GLP-1R (GLP-1 receptor) [pM]	Primary assay EC50 (cAMP), n1 (GLP-1 receptor) [nM]	Primary assay EC50 (cAMP), n2 (GLP-1 receptor) [nM]	Binder
45	45	10	13	2100	2.1	2.1	H[Aib]EGS[αMeF]SSEVSS[αMeF]VEGEAA[αMeK]E[αMeF]VA[αMeF]VV[αMeK]GG-NH2 (N-terminus assumed; SMILES CC(C)[C@H](NC(=O)[C@H](CCC(=O)O)NC(=O)[C@H](CO)NC(=O)[C@H](CO)NC(=O)[C@](C)(Cc1ccccc1)NC(=O)[C@H](CO)NC(=O)CNC(=O)[C@H](CCC(=O)O)NC(=O)C(C)(C)NC(=O)[C@@H](N)Cc1c[nH]cn1)C(=O)N[C@@H](CO)C(=O)N[C@@H](CO)C(=O)N[C@@](C)(Cc1ccccc1)C(=O)N[C@H](C(=O)N[C@@H](CCC(=O)O)C(=O)NCC(=O)N[C@@H](CCC(=O)O)C(=O)N[C@@H](C)C(=O)N[C@@H](C)C(=O)N[C@@](C)(CCCCN)C(=O)N[C@@H](CCC(=O)O)C(=O)N[C@@](C)(Cc1ccccc1)C(=O)N[C@H](C(=O)N[C@@H](C)C(=O)N[C@@](C)(Cc1ccccc1)C(=O)N[C@H](C(=O)N[C@H](C(=O)N[C@@](C)(CCCCN)C(=O)NCC(=O)NCC(N)=O)C(C)C)C(C)C)C(C)C)C(C)C) [SEQ ID NO 12]
15	19	3	1.1	2440	3.1	1.8	H[Aib]QGS[αMeF]TSD[αMeF]SK[αMeF]LDSRRAQD[αMeF]VQ[αMeF]LMNT-NH2 (N-terminus assumed; SMILES CSCC[C@H](NC(=O)[C@H](CC(C)C)NC(=O)[C@](C)(Cc1ccccc1)NC(=O)[C@H](CCC(N)=O)NC(=O)[C@@H](NC(=O)[C@](C)(Cc1ccccc1)NC(=O)[C@H](CC(=O)O)NC(=O)[C@H](CCC(N)=O)NC(=O)[C@H](C)NC(=O)[C@H](CCCNC(=N)N)NC(=O)[C@H](CCCNC(=N)N)NC(=O)[C@H](CO)NC(=O)[C@H](CC(=O)O)NC(=O)[C@H](CC(C)C)NC(=O)[C@](C)(Cc1ccccc1)NC(=O)[C@H](CCCCN)NC(=O)[C@H](CO)NC(=O)[C@](C)(Cc1ccccc1)NC(=O)[C@H](CC(=O)O)NC(=O)[C@H](CO)NC(=O)[C@@H](NC(=O)[C@](C)(Cc1ccccc1)NC(=O)[C@H](CO)NC(=O)CNC(=O)[C@H](CCC(N)=O)NC(=O)C(C)(C)NC(=O)[C@@H](N)Cc1c[nH]cn1)[C@@H](C)O)C(C)C)C(=O)N[C@@H](CC(N)=O)C(=O)N[C@H](C(N)=O)[C@@H](C)O) [SEQ ID NO 14]
28	28	28	28	1860	1.9	1.8	H[Aib]EGS[αMeF]TSDV[αMeS]S[αMeF]LEGEAA[αMeK]E[αMeF]K([γGlu-Palmitoyl])A[αMeF]VV[αMeK]GG-NH2 (N-terminus assumed; SMILES CCCCCCCCCCCCCCCC(=O)N[C@@H](CCC(=O)NCCCC[C@H](NC(=O)[C@](C)(Cc1ccccc1)NC(=O)[C@H](CCC(=O)O)NC(=O)[C@](C)(CCCCN)NC(=O)[C@H](C)NC(=O)[C@H](C)NC(=O)[C@H](CCC(=O)O)NC(=O)CNC(=O)[C@H](CCC(=O)O)NC(=O)[C@H](CC(C)C)NC(=O)[C@](C)(Cc1ccccc1)NC(=O)[C@H](CO)NC(=O)[C@](C)(CO)NC(=O)[C@@H](NC(=O)[C@H](CC(=O)O)NC(=O)[C@H](CO)NC(=O)[C@@H](NC(=O)[C@](C)(Cc1ccccc1)NC(=O)[C@H](CO)NC(=O)CNC(=O)[C@H](CCC(=O)O)NC(=O)C(C)(C)NC(=O)[C@@H](N)Cc1c[nH]cn1)[C@@H](C)O)C(C)C)C(=O)N[C@@H](C)C(=O)N[C@@](C)(Cc1ccccc1)C(=O)N[C@H](C(=O)N[C@H](C(=O)N[C@@](C)(CCCCN)C(=O)NCC(=O)NCC(N)=O)C(C)C)C(C)C)C(=O)O) [SEQ ID NO 77]
0.69	0.63	7.6	4.1	16	0.022	0.0096	H[Aib]QGS[αMeF]TSDK([γGlu-Palmitoyl])SE[αMeF]LDSERARD[αMeF]VA[αMeF]LEAGG-NH2 (N-terminus assumed; SMILES CCCCCCCCCCCCCCCC(=O)N[C@@H](CCC(=O)NCCCC[C@H](NC(=O)[C@H](CC(=O)O)NC(=O)[C@H](CO)NC(=O)[C@@H](NC(=O)[C@](C)(Cc1ccccc1)NC(=O)[C@H](CO)NC(=O)CNC(=O)[C@H](CCC(N)=O)NC(=O)C(C)(C)NC(=O)[C@@H](N)Cc1c[nH]cn1)[C@@H](C)O)C(=O)N[C@@H](CO)C(=O)N[C@@H](CCC(=O)O)C(=O)N[C@@](C)(Cc1ccccc1)C(=O)N[C@@H](CC(C)C)C(=O)N[C@@H](CC(=O)O)C(=O)N[C@@H](CO)C(=O)N[C@@H](CCC(=O)O)C(=O)N[C@@H](CCCNC(=N)N)C(=O)N[C@@H](C)C(=O)N[C@@H](CCCNC(=N)N)C(=O)N[C@@H](CC(=O)O)C(=O)N[C@@](C)(Cc1ccccc1)C(=O)N[C@H](C(=O)N[C@@H](C)C(=O)N[C@@](C)(Cc1ccccc1)C(=O)N[C@@H](CC(C)C)C(=O)N[C@@H](CCC(=O)O)C(=O)N[C@@H](C)C(=O)NCC(=O)NCC(N)=O)C(C)C)C(=O)O) [SEQ ID NO 13]

Continued, binder first:

Binder	Primary assay EC50 (cAMP), n1 [1] [nM]	Primary assay EC50 (cAMP), n2 [1] [nM]	Primary assay EC50 (cAMP), n1 (glucagon receptor) [nM]	Primary assay EC50 (cAMP), n2 (glucagon receptor) [nM]	Primary assay EC50 (cAMP), Mean pM GLP-1R (GLP-1 receptor) [pM]	Primary assay EC50 (cAMP), n1 (GLP-1 receptor) [nM]	Primary assay EC50 (cAMP), n2 (GLP-1 receptor) [nM]
Y[Aib]EGS[αMeF]ISD[αMeF]SIAMDKIHQQD[αMeF]VN[αMeF]LLAQK-NH2 (N-terminus assumed; SMILES CC[C@H](C)[C@H](NC(=O)[C@H](CO)NC(=O)[C@](C)(Cc1ccccc1)NC(=O)[C@H](CC(=O)O)NC(=O)[C@H](CO)NC(=O)[C@@H](NC(=O)[C@](C)(Cc1ccccc1)NC(=O)[C@H](CO)NC(=O)CNC(=O)[C@H](CCC(=O)O)NC(=O)C(C)(C)NC(=O)[C@@H](N)Cc1ccc(O)cc1)[C@@H](C)CC)C(=O)N[C@@H](C)C(=O)N[C@@H](CCSC)C(=O)N[C@@H](CC(=O)O)C(=O)N[C@@H](CCCCN)C(=O)N[C@H](C(=O)N[C@@H](Cc1c[nH]cn1)C(=O)N[C@@H](CCC(N)=O)C(=O)N[C@@H](CCC(N)=O)C(=O)N[C@@H](CC(=O)O)C(=O)N[C@@](C)(Cc1ccccc1)C(=O)N[C@H](C(=O)N[C@@H](CC(N)=O)C(=O)N[C@@](C)(Cc1ccccc1)C(=O)N[C@@H](CC(C)C)C(=O)N[C@@H](CC(C)C)C(=O)N[C@@H](C)C(=O)N[C@@H](CCC(N)=O)C(=O)N[C@@H](CCCCN)C(N)=O)C(C)C)[C@@H](C)CC) [SEQ ID NO 15]	0.16	0.079	120	120	119000	120	120
H[Aib]EGS[αMeF]TSDVSS[αMeF]LEGEAA[αMeK]E[αMeF]VA[αMeF]VV[αMeK]GG-NH2 (N-terminus assumed; SMILES CC(C)C[C@H](NC(=O)[C@](C)(Cc1ccccc1)NC(=O)[C@H](CO)NC(=O)[C@H](CO)NC(=O)[C@@H](NC(=O)[C@H](CC(=O)O)NC(=O)[C@H](CO)NC(=O)[C@@H](NC(=O)[C@](C)(Cc1ccccc1)NC(=O)[C@H](CO)NC(=O)CNC(=O)[C@H](CCC(=O)O)NC(=O)C(C)(C)NC(=O)[C@@H](N)Cc1c[nH]cn1)[C@@H](C)O)C(C)C)C(=O)N[C@@H](CCC(=O)O)C(=O)NCC(=O)N[C@@H](CCC(=O)O)C(=O)N[C@@H](C)C(=O)N[C@@H](C)C(=O)N[C@@](C)(CCCCN)C(=O)N[C@@H](CCC(=O)O)C(=O)N[C@@](C)(Cc1ccccc1)C(=O)N[C@H](C(=O)N[C@@H](C)C(=O)N[C@@](C)(Cc1ccccc1)C(=O)N[C@H](C(=O)N[C@H](C(=O)N[C@@](C)(CCCCN)C(=O)NCC(=O)NCC(N)=O)C(C)C)C(C)C)C(C)C) [SEQ ID NO 11]	100	100	100	100	32	0.032	0.032
H[Aib]EGS[αMeF]T[αMeS]DVSS[αMeF]LEGEAA[αMeK]E[αMeF]IA[αMeF]VV[αMeK]GG-NH2 (N-terminus assumed; SMILES CC[C@H](C)[C@H](NC(=O)[C@](C)(Cc1ccccc1)NC(=O)[C@H](CCC(=O)O)NC(=O)[C@](C)(CCCCN)NC(=O)[C@H](C)NC(=O)[C@H](C)NC(=O)[C@H](CCC(=O)O)NC(=O)CNC(=O)[C@H](CCC(=O)O)NC(=O)[C@H](CC(C)C)NC(=O)[C@](C)(Cc1ccccc1)NC(=O)[C@H](CO)NC(=O)[C@H](CO)NC(=O)[C@@H](NC(=O)[C@H](CC(=O)O)NC(=O)[C@](C)(CO)NC(=O)[C@@H](NC(=O)[C@](C)(Cc1ccccc1)NC(=O)[C@H](CO)NC(=O)CNC(=O)[C@H](CCC(=O)O)NC(=O)C(C)(C)NC(=O)[C@@H](N)Cc1c[nH]cn1)[C@@H](C)O)C(C)C)C(=O)N[C@@H](C)C(=O)N[C@@](C)(Cc1ccccc1)C(=O)N[C@H](C(=O)N[C@H](C(=O)N[C@@](C)(CCCCN)C(=O)NCC(=O)NCC(N)=O)C(C)C)C(C)C) [SEQ ID NO 16]	100	100	100	100	10100	11	9.4
